In patent WO2016071355A1 (dated 2016):

Columns and labels:
[1] = biological target: T1, human CD38 peptide-Fc fusion F20 (human, UniProt P0DOX5 223-449 = IgG part); experiment: SPR, antibody immobilized, peptide-Fc injected at 15 nM and 200 nM
[2] = biological target: T2, human CD38 peptide-Fc fusion F11 (human, UniProt P0DOX5 223-449 = IgG part); experiment: as above
[3] = biological target: T3, human CD38 peptide-Fc fusion F18 (human, UniProt P0DOX5 223-449 = IgG part); experiment: as above
[4] = biological target: T4, human CD38 peptide-Fc fusion F3 (human, UniProt P0DOX5 223-449 = IgG part); experiment: as above
T4 construct: doubtful; also called F3 construct

[5] = biological target: T5, human CD38 peptide-Fc fusion F8 (human, UniProt P0DOX5 223-449 = IgG part); experiment: as above
[6] = biological target: T6, human CD38 peptide-Fc fusion F16 (human, UniProt P0DOX5 223-449 = IgG part); experiment: as above
[7] = biological target: T7, human CD38 peptide-Fc fusion F1 (human, UniProt P0DOX5 223-449 = IgG part); experiment: as above
[8] = biological target: T8, human CD38 peptide-Fc fusion F13 (human, UniProt P0DOX5 223-449 = IgG part); experiment: as above
[9] = biological target: T9, human CD38 peptide-Fc fusion F10 (human, UniProt P0DOX5 223-449 = IgG part); experiment: as above
[10] = biological target: T10, human CD38 peptide-Fc fusion F14 (human, UniProt P0DOX5 223-449 = IgG part); experiment: as above
[11] = biological target: T11, human CD38 peptide-Fc fusion F17 (human, UniProt P0DOX5 223-449 = IgG part); experiment: as above
[12] = biological target: T12, human CD38 peptide-Fc fusion F5 (human, UniProt P0DOX5 223-449 = IgG part); experiment: as above
[13] = biological target: T13, human CD38 peptide-Fc fusion F12 (human, UniProt P0DOX5 223-449 = IgG part); experiment: as above
[14] = biological target: T14, human CD38 peptide-Fc fusion F2 (human, UniProt P0DOX5 223-449 = IgG part); experiment: as above
[15] = biological target: T15, human CD38 peptide-Fc fusion F15 (human, UniProt P0DOX5 223-449 = IgG part); experiment: as above
[16] = biological target: T16, human CD38 peptide-Fc fusion F7 (human, UniProt P0DOX5 223-449 = IgG part); experiment: as above
[17] = biological target: T17, human CD38 peptide-Fc fusion F9 (human, UniProt P0DOX5 223-449 = IgG part); experiment: as above
[18] = biological target: T18, human CD38 peptide-Fc fusion F19 (human, UniProt P0DOX5 223-449 = IgG part); experiment: as above
[19] = biological target: T19, human CD38 peptide-Fc fusion F4 (human, UniProt P0DOX5 223-449 = IgG part); experiment: as above
T19 construct: doubtful

[20] = biological target: T1, human CD38 peptide-Fc fusion F20; experiment: SPR, antibody immobilized, peptide-Fc injected at 1000 nM
[21] = biological target: T2, human CD38 peptide-Fc fusion F11; experiment: as above
[22] = biological target: T3, human CD38 peptide-Fc fusion F18; experiment: as above
[23] = biological target: T4, human CD38 peptide-Fc fusion F3; experiment: as above
[24] = biological target: T5, human CD38 peptide-Fc fusion F8; experiment: as above
[25] = biological target: T6, human CD38 peptide-Fc fusion F16; experiment: as above
[26] = biological target: T7, human CD38 peptide-Fc fusion F1; experiment: as above
[27] = biological target: T8, human CD38 peptide-Fc fusion F13; experiment: as above
[28] = biological target: T20, human CD38 peptide-Fc fusion F6 (human, UniProt P0DOX5 195-449 = IgG part); experiment: as above
[29] = biological target: T9, human CD38 peptide-Fc fusion F10; experiment: as above
[30] = biological target: T10, human CD38 peptide-Fc fusion F14; experiment: as above
[31] = biological target: T11, human CD38 peptide-Fc fusion F17; experiment: as above
[32] = biological target: T12, human CD38 peptide-Fc fusion F5; experiment: as above
[33] = biological target: T13, human CD38 peptide-Fc fusion F12; experiment: as above
[34] = biological target: T14, human CD38 peptide-Fc fusion F2; experiment: as above
[35] = biological target: T15, human CD38 peptide-Fc fusion F15; experiment: as above
[36] = biological target: T16, human CD38 peptide-Fc fusion F7; experiment: as above
[37] = biological target: T17, human CD38 peptide-Fc fusion F9; experiment: as above
[38] = biological target: T18, human CD38 peptide-Fc fusion F19; experiment: as above
[39] = biological target: T19, human CD38 peptide-Fc fusion F4; experiment: as above
[40] = biological target: T21, soluble extracellular region of human CD38 fused to a 6-His-tag (human, UniProt P28907 43-300); experiment: SPR, equilibrium response, antibody captured on protein G
T21 construct: also called human CD38 extracellular domain with a poly-histidine tag; human CD38 antigen

[41] = biological target: T22, soluble extracellular region of cynomolgus monkey CD38 antigen fused to a 6-His-tag (cynomolgus monkey, UniProt Q5VAN0 45-301); experiment: SPR
T22 construct: also called cynomolgus CD38

[42] = biological target: T4, human CD38 peptide-Fc fusion F3; experiment: SPR
[43] = biological target: T20, human CD38 peptide-Fc fusion F6; experiment: SPR

B1: humanized 9G7 antibody (best-fit version) of Example 10 (antibody, human IgG1, kappa, V domains shown)
VH: QVTLKESGPTLVKPTQTLTLTCTFSGLSLSTSGKGVGWIRQPPGKALEWLAHIWWDDDKRYNPALKSRLTITKDTSKNQVVLTMTNMDPVDTATYYCARIELGRSYVMDYWGQGTLVTVSS
VL: DIQMTQSPSSLSASVGDRVTITCQASQDVITSVAWFQQKPGKAPKLLIYSASYRYTGVPSRFSGSGSGTDFTFTISSLQPEDIATYYCQQHYTIPLTFGQGTKLEIKR
notes: also called h9G7
binding result [1]: no binding (tested: 200 nM) | binding result [2]: no binding (tested: 200 nM) | binding result [3]: no binding (tested: 200 nM) | binding result [4]: no binding (tested: 200 nM) | binding result [5]: no binding (tested: 200 nM) | binding result [6]: no binding (tested: 200 nM) | binding result [7]: no binding (tested: 200 nM) | binding result [8]: no binding (tested: 200 nM) | binding result [9]: no binding (tested: 200 nM) | binding result [10]: no binding (tested: 200 nM) | binding result [11]: no binding (tested: 200 nM) | binding result [12]: no binding (tested: 200 nM) | binding result [13]: no binding (tested: 200 nM) | binding result [14]: no binding (tested: 200 nM) | binding result [15]: no binding (tested: 200 nM) | binding result [16]: no binding (tested: 200 nM) | binding result [17]: no binding (tested: 200 nM) | binding result [18]: no binding (tested: 200 nM) | binding result [19]: no binding (tested: 200 nM)

B2: human 767 antibody (antibody, V domains shown)
VH: QVQLVESGGGLVQPGGSLRLSCAASGFTFSSYWMSWVRQAPGKGLEWVANIKQDGSEKYYVDSVKGRFTISRDNAKNSLYLQMNSLRAEDTAVYYCAREGRTGYFDYWGQGTLVTVSS
VL: QSVLTQPPSASGTPGQRVTISCSGSTSNIGTNYVYWYQQLPGTAPKLLIYRNDQRPSGVPDRFSGSKSGTSASLAISGLRSEDEADYYCAAWDDSRSGVYAFGTGTKVTVLR
notes: Human IgG1
binding result [20]: no binding (tested: 1000 nM) | binding result [21]: no binding (tested: 1000 nM) | binding result [22]: no binding (tested: 1000 nM) | binding result [23]: binds | binding result [24]: no binding (tested: 1000 nM) | binding result [25]: no binding (tested: 1000 nM) | binding result [26]: no binding (tested: 1000 nM) | binding result [27]: no binding (tested: 1000 nM) | binding result [28]: no binding (tested: 1000 nM) | binding result [29]: no binding (tested: 1000 nM) | binding result [30]: no binding (tested: 1000 nM) | binding result [31]: no binding (tested: 1000 nM) | binding result [32]: no binding (tested: 1000 nM) | binding result [33]: no binding (tested: 1000 nM) | binding result [34]: no binding (tested: 1000 nM) | binding result [35]: no binding (tested: 1000 nM) | binding result [36]: no binding (tested: 1000 nM) | binding result [37]: no binding (tested: 1000 nM) | binding result [38]: no binding (tested: 1000 nM) | binding result [39]: no binding (tested: 1000 nM) | Kd [40]: ~0.3 µM | Kd [41]: ~1.2 µM

B3: SAR650984 antibody (antibody, human IgG1, kappa, V domains shown)
VH: QVQLVQSGAEVAKPGTSVKLSCKASGYTFTDYWMQWVKQRPGQGLEWIGTIYPGDGDTGYAQKFQGKATLTADKSSKTVYMHLSSLASEDSAVYYCARGDYYGSNSLDYWGQGTSVTVSS
VL: DIVMTQSHLSMSTSLGDPVSITCKASQDVSTVVAWYQQKPGQSPRRLIYSASYRYIGVPDRFTGSGAGTDFTFTISSVQAEDLAVYYCQQHYSPPYTFGGGTKLEIKR
notes: also called humanized SAR650984 antibody
binding result [42]: no binding | binding result [43]: binds
